Test results from US20200247855A1, “THERAPY AND DIAGNOSTICS” (OXFORD UNIVERSITY INNOVATION LIMITED, priority 2017, published 2020).
Where a chain is given by its changes, count along the chain named. Entries after “also recorded” stand apart in the source; their conditions may differ.

Legend:
CXCL11_HUMAN = biological target: T1, CXCL11_HUMAN (Homo sapiens, UniProt O14625); assay: Yeast surface display (YSD) FACS binding; conditions: FACS re-test; mean percent shift where several clones
T1 sequence (O14625 22-94): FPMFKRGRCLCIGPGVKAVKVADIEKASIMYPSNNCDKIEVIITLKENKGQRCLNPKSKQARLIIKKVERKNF
Description: (§1) Table 1. Tick CKBPs described in PCT/GB2017/050563 and [17]. Tick peptide sequences isolated in yeast surface display fluorescent-activated cell sorting (FACS) screens using a labelled chemokine. Identity with Evasin-1, 4 or 3 was calculated using BLAST. Abbreviations: IXORI—Ixodes ricinus, RHISA—Rhipicephalus sanguineus, AMBMA—Amblyomma maculatum, AMBPA—Amblyomma parvum, AMBTR—Amblyomma triste, AMBAM—Amblyomma americanum, AMBCA—Amblyomma cajennense, RHIPU—Rhipicephalus pulchellus. Table 2A-C. Binding characteristics of tick CKBPs previously disclosed (PCT/GB2017/050563 and [17]). All members of the human chemokine family[164] are listed in column 1. Binding to human chemokines was determined for 14 tick CKBPs using biolayer interferometry (BLI) with calculated Kd shown as Molar (Moles/Litre). Binding data for 17 other novel tick CKBPs was assayed using yeast surface display[17,166],with positive binding results shown as “YES”. For biolayer interferometry, His-tagged purified tick CKBP was bound to a Ni-NINTA sensor on an OctetRed® 384 system, and then binding to each chemokine listed (with the exception of CCL25, CCL26, CXCL16, CXCL17, CXCL4L1, XCL2) was assayed in a cross-binding screen at a chemokine concentration of 300 nM as described. For those chemokines showing binding to a tick CKBP in the cross-binding screen, binding assays were repeated using different doses of chemokine. Association, equilibrium and dissociation data were analysed using Octet software to create corresponding fitted curves, and used to calculate Kd. For yeast surface display, (YSD) background fluorescence was controlled for by using either an empty vector or by omitting the chemokine (i.e. using streptavidin-Alexa647 alone). An arbitrary threshold of >3 fold over background mean fluorescence intensity was chosen to describe confirmed re-tests. Where binding was detected data are indicated as “YES”. […] For yeast surface display data, empty cells represent chemokines that were not tested. Binding data published in relation to previously described tick CKBPs (Evasins-1, 4 and 3) is also shown for comparison in each of FIGS. 2A-C, with the relevant data obtained from publications: [20-22,32]. Table 3: Neutralisation of human chemokines by tick CKBPs previously disclosed (PCT/GB2017/050563 and [17]). Neutralising activity was determined using a quantitative THP1 cell migration assay in a 96-well Boyden chamber with chemokine in the bottom chamber as described. Cells migrating through to the bottom chamber at 4 hours were counted using flow cytometry in a 96 well plate format. IC50 for neutralisation was determined at the chemokine EC80 dose as determined using a range of tick CKBP concentrations. Data was analysed using GraphPad Prism to determine IC50, which is shown as Molar (Moles/Litre). Empty cells represent experiments not done. Table 4—Other previously described tick CKBPs. Tick CKBPs that were also described in PCT/GB2017/050563 and Singh et al. are indicated in “Notes”. Table 5.—Novel tick CKBPs of the invention. Table 6. […] The peptide sequence prefix indicates the identity, and suffix indicate the tick species as follows: AMBCA, Amblyomma cajennense and IXORI, Ixodes ricinus. […] Certain tick peptides e.g. P1074_IXORI were recovered from screens performed with more than one chemokine. Individual yeast clones recovered from the library were re-tested using a FACS (fluorescence activated cell sorting), experiment. The binding of the peptide to the chemokine was assayed by measuring the percent (%), of yeast cells expressing the given peptide that exceeded a background threshold set by measuring the fluorescence of the yeast library pool treated with streptavidin-[…] alone. When more than one independent yeast clone was isolated for a given peptide-chemokine combination, the mean percent shift was calculated and reported in column 3. […]

CCL20_HUMAN = CCL20_HUMAN (Homo sapiens, UniProt P78556); assay: Yeast surface display (YSD) FACS binding
Description: as §1

CXCL12_HUMAN = CXCL12_HUMAN (Homo sapiens, UniProt P48061); assay: Yeast surface display (YSD) FACS binding; conditions: yeast surface display
Description: as §1

CCL17_HUMAN = biological target: T2, CCL17_HUMAN (Homo sapiens, UniProt Q92583); assay: Yeast surface display (YSD) FACS binding
T2 sequence (Q92583 24-94): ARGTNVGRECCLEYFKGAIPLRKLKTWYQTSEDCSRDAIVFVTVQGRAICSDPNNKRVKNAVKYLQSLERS
Description: as §1

CCL5_HUMAN = biological target: T3, CCL5_HUMAN (Homo sapiens, UniProt P13501); assay: Yeast surface display (YSD) FACS binding
T3 sequence (P13501 24-91): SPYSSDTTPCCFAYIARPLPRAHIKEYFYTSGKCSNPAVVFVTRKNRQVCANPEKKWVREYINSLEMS
Description: as §1

CXCL8_HUMAN = biological target: T4, CXCL8_HUMAN (Homo sapiens, UniProt P10145); assay: Yeast surface display (YSD) FACS binding; design: label (chemical); conditions: yeast surface display
T4 sequence (P10145 21-99): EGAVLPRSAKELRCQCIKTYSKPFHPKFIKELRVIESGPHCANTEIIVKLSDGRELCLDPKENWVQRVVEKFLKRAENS
Description: as §1

CCL11_HUMAN = CCL11_HUMAN (Homo sapiens, UniProt P51671); assay: Biolayer interferometry (BLI) binding
Description: as §1

CCL13_HUMAN = CCL13_HUMAN (Homo sapiens, UniProt Q99616); assay: Biolayer interferometry (BLI) binding
Description: as §1

CCL14_HUMAN = biological target: T5, CCL14_HUMAN (Homo sapiens, UniProt Q16627); assay: Biolayer interferometry (BLI) binding
T5 sequence (Q16627 20-93): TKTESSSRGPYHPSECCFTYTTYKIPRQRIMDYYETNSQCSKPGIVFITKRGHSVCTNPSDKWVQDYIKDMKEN
Description: as §1

CCL16_HUMAN = biological target: T6, CCL16_HUMAN (Homo sapiens, UniProt O15467); assay: Biolayer interferometry (BLI) binding
T6 sequence (O15467 24-120): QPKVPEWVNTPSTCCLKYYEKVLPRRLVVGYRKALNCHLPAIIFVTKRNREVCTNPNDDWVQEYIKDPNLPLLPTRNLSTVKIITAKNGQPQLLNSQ
Description: as §1

CCL18_HUMAN = biological target: T7, CCL18_HUMAN (Homo sapiens, UniProt P55774); assay: Biolayer interferometry (BLI) binding
T7 sequence (P55774 21-89): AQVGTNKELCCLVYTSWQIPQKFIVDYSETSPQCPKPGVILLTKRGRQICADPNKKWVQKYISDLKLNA
Description: as §1

CCL1_HUMAN = biological target: T8, CCL1_HUMAN (Homo sapiens, UniProt P22362); assay: Biolayer interferometry (BLI) binding
T8 sequence (P22362 24-96): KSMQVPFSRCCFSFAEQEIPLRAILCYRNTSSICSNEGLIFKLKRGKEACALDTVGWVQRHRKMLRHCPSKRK
Description: as §1

CCL2_HUMAN = CCL2_HUMAN (Homo sapiens, UniProt P13500); assay: Biolayer interferometry (BLI) binding
Description: as §1

CCL3L1_HUMAN = CCL3L1_HUMAN (Homo sapiens, UniProt P16619); assay: Biolayer interferometry (BLI) binding
Description: as §1

CCL3_HUMAN = biological target: T9, CCL3_HUMAN (Homo sapiens, UniProt P10147); assay: Biolayer interferometry (BLI) binding
T9 sequence (P10147 24-92): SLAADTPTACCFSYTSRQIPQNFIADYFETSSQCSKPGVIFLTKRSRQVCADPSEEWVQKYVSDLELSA
Description: as §1

CCL4L1_HUMAN = biological target: T10, CCL4L1_HUMAN (Homo sapiens, UniProt Q8NHW4); assay: Biolayer interferometry (BLI) binding
T10 sequence (Q8NHW4 24-92): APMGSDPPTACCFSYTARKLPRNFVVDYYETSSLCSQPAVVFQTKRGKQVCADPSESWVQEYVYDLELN
Description: as §1

CCL4_HUMAN = biological target: T11, CCL4_HUMAN (Homo sapiens, UniProt P13236); assay: Biolayer interferometry (BLI) binding
T11 sequence (P13236 24-92): T10 sequence (Q8NHW4 24-92) with G47S
Description: as §1

CCL7_HUMAN = CCL7_HUMAN (Homo sapiens, UniProt P80098); assay: Biolayer interferometry (BLI) binding
Description: as §1

CCL8_HUMAN = biological target: T12, CCL8_HUMAN (Homo sapiens, UniProt P80075); assay: Biolayer interferometry (BLI) binding; conditions: read-out: Kd, CCL8_HUMAN
T12 sequence (P80075 24-99): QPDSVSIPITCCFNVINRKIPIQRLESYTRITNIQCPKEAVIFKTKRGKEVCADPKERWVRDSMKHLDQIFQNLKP
Description: as §1

chemokines = conditions: list of chemokines bound, from the literature [18,20-22]; cited from earlier work

CCL20_HUMAN, sequence (P78556 27-96): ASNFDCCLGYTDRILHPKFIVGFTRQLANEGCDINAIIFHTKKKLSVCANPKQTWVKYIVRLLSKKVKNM
CXCL12_HUMAN, sequence (P48061 22-93): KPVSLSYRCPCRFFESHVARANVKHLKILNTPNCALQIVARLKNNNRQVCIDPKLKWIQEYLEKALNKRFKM
CCL13_HUMAN, sequence (Q99616 17-98): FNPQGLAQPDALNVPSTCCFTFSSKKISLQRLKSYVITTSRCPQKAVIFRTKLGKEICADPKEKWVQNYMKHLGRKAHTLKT
CCL2_HUMAN, sequence (P13500 24-99): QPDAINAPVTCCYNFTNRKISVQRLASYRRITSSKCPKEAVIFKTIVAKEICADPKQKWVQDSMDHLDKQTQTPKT
CCL3L1_HUMAN, sequence (P16619 24-93): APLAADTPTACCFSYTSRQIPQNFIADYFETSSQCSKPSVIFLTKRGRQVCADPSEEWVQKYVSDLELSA
CCL7_HUMAN, sequence (P80098 24-99): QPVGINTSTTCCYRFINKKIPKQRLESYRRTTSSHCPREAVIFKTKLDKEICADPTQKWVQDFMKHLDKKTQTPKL
CCL11_HUMAN, sequence (P51671 24-97): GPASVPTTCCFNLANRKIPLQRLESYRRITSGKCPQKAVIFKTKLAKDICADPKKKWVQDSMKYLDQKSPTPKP

B1: P1078_IXORI: novel CXC-binding tick CKBP, Ixodes ricinus (protein, listed as Ixodes ricinus)
chain: GSKGSSAQQSSHDSIKAEFCETNCTMKTGGKWTQCHGGCFCVHVGNETVGRCIKLDGDYDYPSSKHEE
CXCL11_HUMAN
  Chemokines bound in yeast surface display and % cells over threshold fluorescence: CXCL11_HUMAN: CXCL11_HUMAN 38%

B2: P1090_IXORI: novel CXC-binding tick CKBP, Ixodes ricinus (protein, listed as Ixodes ricinus)
chain: GSKELSGPESSENSIEAAFCDTNCTEGTDGVWSGCSAGCFCVHVGNSTVGRCMTFNGVDGG
CXCL11_HUMAN
  Chemokines bound in yeast surface display and % cells over threshold fluorescence: CXCL11_HUMAN: CXCL11_HUMAN 32%

B3: P1015_AMBCA: tick CKBP, Amblyomma cajennense (protein)
chain: EEAPGPAPGCGEPEPTPPKPRRHGIVTNVNSCNSTILVWNGKEFPALCKVRCPHKSYRVSDFEPCLKFTNRRFLQERKDETPYKCKLGFCRHGTCITSEHSRKVPCKVPADRLDPSE
modifications: Amblyomma cajennense
CCL20_HUMAN
  Binding to CCL20_HUMAN, YSD: YES (An arbitrary threshold of >3 fold over background mean fluorescence intensity was chosen to describe confirmed re-tests. Where binding was detected data are indicated as “YES”)
CXCL12_HUMAN
  Binding to CXCL12_HUMAN, YSD: YES (An arbitrary threshold of >3 fold over background mean fluorescence intensity was chosen to describe confirmed re-tests. Where binding was detected data are indicated as “YES”)

B4: P993_AMBPA: tick CKBP, Amblyomma parvum (protein, listed as Amblyomma parvum)
chain: HRHYDPNEPCLIAGLKTPRDALPAGCRYDCMIKKNQKLRDGLLCLDVPEKVVKRMVNYLNYSCPLGTCRKGICKRKHRNVRCQKYPVFYMSPPK
CCL17_HUMAN
  Binding to CCL17_HUMAN, YSD: YES (An arbitrary threshold of >3 fold over background mean fluorescence intensity was chosen to describe confirmed re-tests. Where binding was detected data are indicated as “YES”)
CCL20_HUMAN
  Binding to CCL20_HUMAN, YSD: YES (An arbitrary threshold of >3 fold over background mean fluorescence intensity was chosen to describe confirmed re-tests. Where binding was detected data are indicated as “YES”)
CCL5_HUMAN
  Binding to CCL5_HUMAN, YSD: YES (An arbitrary threshold of >3 fold over background mean fluorescence intensity was chosen to describe confirmed re-tests. Where binding was detected data are indicated as “YES”)
CXCL8_HUMAN
  Binding to CXCL8_HUMAN, YSD: YES (An arbitrary threshold of >3 fold over background mean fluorescence intensity was chosen to describe confirmed re-tests. Where binding was detected data are indicated as “YES”)

B5: P467_RHIPU: tick CKBP (evasin), Rhipicephalus pulchellus; RPU-01 stated identical (protein, listed as Rhipicephalus pulchellus)
chain: AEKSLDSDSSGEDYELWTQGCPFLVAENRTGFGTTVSCQHNCNGAIEKVPEGEPCYTIGEDGLGRMKLNLPYNCSLGECSGGVCVPNGRSDVCFKRTWEENNKAMA
CCL11_HUMAN
  Kd: 1.4 nM
CCL13_HUMAN
  Kd: 2.56 nM
CCL14_HUMAN
  Kd: 4.13 nM
CCL16_HUMAN
  Kd: 14.1 nM
CCL18_HUMAN
  Kd: 16.6 nM
CCL1_HUMAN
  Kd: 53.4 nM
CCL2_HUMAN
  Kd: 0.001 nM
CCL3L1_HUMAN
  Kd: 0.524 nM
CCL3_HUMAN
  Kd: 0.363 nM
CCL4L1_HUMAN
  Kd: 4.72 nM
CCL4_HUMAN
  Kd: 13.6 nM
CCL7_HUMAN
  Kd: 2.15 nM
CCL8_HUMAN
  Kd: 2.85 nM
chemokines
  Previously described chemokine binding: CCL11, CCL24,; also recorded: CCL26, CCL2,; also recorded: CCL8, CCL7

B6: P1252_AMBAM: tick CKBP, Amblyomma americanum (protein, listed as Amblyomma americanum)
chain: RGGAASVPANASIPGCGDAQTTPAAPEDQPKHYVVYRDGNGCEVKIIGTWMTTEDYNCLPDTFRKNRAPHGKVKLPASCKKTCGNAVQNLKDGTPCRKVFGDLGRRRNLIKNGCLVGACQSGLCVSGNRTISCYIPPNSTDTRATPGSFAE
CCL17_HUMAN
  Binding to CCL17_HUMAN, YSD: YES (An arbitrary threshold of >3 fold over background mean fluorescence intensity was chosen to describe confirmed re-tests. Where binding was detected data are indicated as “YES”)
CCL20_HUMAN
  Binding to CCL20_HUMAN, YSD: YES (An arbitrary threshold of >3 fold over background mean fluorescence intensity was chosen to describe confirmed re-tests. Where binding was detected data are indicated as “YES”)
